Measured values reported in patent US20240150473A1, “MODULATION OF WNT SIGNALING IN GASTROINTESTINAL DISORDERS” (Surrozen Operating, Inc., priority 2021, published 2024).

T1: Lrp6E3E4 domain (Homo sapiens, UniProt O75581)
T1 sequence (O75581 631-1244 limits assumed): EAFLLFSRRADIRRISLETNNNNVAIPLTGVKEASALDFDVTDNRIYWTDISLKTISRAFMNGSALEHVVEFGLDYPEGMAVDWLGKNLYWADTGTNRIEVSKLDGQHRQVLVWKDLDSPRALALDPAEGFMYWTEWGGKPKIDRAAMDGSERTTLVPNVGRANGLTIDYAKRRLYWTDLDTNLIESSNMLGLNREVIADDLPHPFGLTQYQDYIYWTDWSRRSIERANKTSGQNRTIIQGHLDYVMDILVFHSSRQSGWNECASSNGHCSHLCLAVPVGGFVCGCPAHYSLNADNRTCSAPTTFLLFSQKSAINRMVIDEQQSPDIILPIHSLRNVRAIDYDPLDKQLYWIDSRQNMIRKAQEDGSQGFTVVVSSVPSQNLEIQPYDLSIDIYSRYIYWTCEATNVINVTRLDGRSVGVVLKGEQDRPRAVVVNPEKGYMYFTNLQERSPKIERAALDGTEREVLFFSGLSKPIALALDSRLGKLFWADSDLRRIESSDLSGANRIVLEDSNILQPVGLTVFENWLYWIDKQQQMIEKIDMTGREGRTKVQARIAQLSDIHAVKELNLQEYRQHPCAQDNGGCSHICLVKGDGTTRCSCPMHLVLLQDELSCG


Biological target: T1, Lrp6E3E4 domain
Experiment: Bio-layer interferometry (Octet) binding kinetics of VHH26 constructs
Details: 1:1 binding model
Experimental: These six humanized VHH26 variants H1 to H6 and the parental VHH26 were transiently expressed in Expi293 cells (at 80 mL scale) with a C-terminal hexa-histidine tag. Proteins were purified using His-Complete resin (Roche, USA) following standard procedures. Expression levels and homogeneity of VHH26 and its humanized variants were analyzed by SDS-PAGE and SEC (size-exclusion chromatography). […] Biotinylated LRP6E3E4 diluted to 50 nM in the running buffer (PBS, 0.05% Tween-20, 0.5% BSA, pH 7.2) were captured to the SA biosensor followed by dipping into wells containing the indicated VHH26 proteins at different concentrations in running buffer or into a well with only running buffer as a reference channel. KD for each binder was calculated by Octet System software, based on fitting to a 1:1 binding model. Kinetics values (Kon, Koff, KD) from each experiment was calculated from seven technical replicates of different concentrations of the molecule tested with Octet Data Analysis 9.0 (PALL ForteBio, Fremont, CA).
Central fractions of each of these peaks were examined by Octect-BLI for their ability interact with Lrp6. Kinetics parameters such as kon, koff, and KD for interaction between VHH26 constructs and Lrp6E3E4 domain are listed in Table 2. Analyses of these parameters reveal that the binding affinity towards Lrp6 is least affected in the case of the VHH26-H5 humanized variant compared to the parent VHH26 (Table 2; FIG. 3B).

[1] = SEC fraction C1/G1 (parental D3)
[2] = SEC fraction C3/G3 (parental D3)

Molecule	koff [1]	kon [1]	koff [2]	kon [2]
VHH26 (parental): parental camelid LRP6 binding VHH, SEQ ID NO: 25 (protein, VHH26 (parental)) VHH: DVQLVESGGGLVQAGGSLRLACAGSGRIFAIYDIAWYRHPPGNQRELVAMIRPVVTEIDYADSVKGRFTISRNNAMKTVYLQMNNLKPEDTAVYYCNAKRPWGSRDEYWGQGTQVTVSS	1.77E−02	8.10E+05	1.82E−02	1.05E+06
VHH26-H4: humanized variant of LRP6 binding VHH26, SEQ ID NO: 22 [VHH26-H4] (protein, VHH26_H4) VHH: EVQLVESGGGLVQPGGSLRLSCAGSGRIFAIYDIAWYRQAPGKGRELVAMIRPVVTEIDYADSVKGRFTISRDNSKNTVYLQMNSLRAEDTAVYYCNAKRPWGSRDEYWGQGTTVTVSS	9.51E−02	1.44E+05	5.56E−03	2.90E+04
VHH26-H3: humanized variant of LRP6 binding VHH26, SEQ ID NO: 21 (protein, VHH26_H3) VHH: EVQLVESGGGLVQPGGSLRLSCAGSGRIFAIYDIAWYRQAPGKGREWVAMIRPVVTEIDYADSVKGRFTISRDNSKNTVYLQMNSLRAEDTAVYYCNAKRPWGSRDEYWGQGTTVTVSS	5.22E−02	1.63E+04	7.75E−03	1.84E+04
VHH26-H1: humanized variant of LRP6 binding VHH26, SEQ ID NO: 19 (protein, VHH26_H1) VHH: EVQLLESGGGLVQPGGSLRLSCAASGRIFAIYDIAWVRQAPGKGLEWVSMIRPVVTEIDYADSVKGRFTISRDNSKNTLYLQMNSLRAEDTAVYYCAKKRPWGSRDEYWGQGTTVTVSS	–	–	3.98E−03	1.42E+04
VHH26-H5: humanized variant of LRP6 binding VHH26, SEQ ID NO: 23 (protein, VHH26_H5) VHH: EVQLVESGGGLVQPGGSLRLSCAGSGRIFAIYDIAWYRQAPGKGREWVAMIRPVVTEIDYADSVKGRFTISRDNSKKTVYLQMNSLRAEDTAVYYCNAKRPWGSRDEYWGQGTTVTVSS	1.77E−02	4.28E+05	1.47E−02	1.35E+05
VHH26-H6: humanized variant of LRP6 binding VHH26, SEQ ID NO: 24 [VHH26-H6] (protein, VHH26_H6) VHH: EVQLVESGGGLVQPGGSLRLSCAGSGRIFAIYDIAWYRQAPGKGRELVAMIRPVVTEIDYADSVKGRFTISRDNSKKTVYLQMNSLRAEDTAVYYCNAKRPWGSRDEYWGQGTTVTVSS	3.11E−02	4.52E+04	8.36E−03	1.72E+04
VHH26-H2: humanized variant of LRP6 binding VHH26, SEQ ID NO: 20 (protein, VHH26_H2) VHH: EVQLVESGGGLVQPGGSLRLSCAGSGRIFAIYDIAWYRQAPGKGLEWVAMIRPVVTEIDYADSVKGRFTISRDNSKNTVYLQMNSLRAEDTAVYYCNAKRPWGSRDEYWGQGTTVTVSS	6.53E−02	1.48E+05	6.84E−02	2.44E+05
